From paper PMC8891019, “TDP-43 represses cryptic exon inclusion in the FTD–ALS gene UNC13A” come the findings set out here.

Data set [1] has as its target T1, TDP-43-MBP (full-length wild-type TDP-43) (UniProt Q13148 1-414). Kind of data set: EMSA; Kd,app only in figure; much higher affinity than exon or repeat; EMSA: 1 nM RNA, 50 mM Tris-HCl pH 7.5, 100 mM KCl, 2 mM MgCl2, 100 mM beta-mercaptoethanol, 0.1 mg/ml BSA, 30 min, room temperature; TDP-43 0-4 (printed mM in Methods, 0-8 uM in legend); 6% native PAGE, Cy5 imaging. The conditions noted are these: protein: recombinant; tags: MBP; Ni-NTA purified; label: 5' Cy3 on strand 1; 3' Cy5 on 18-mer; 18 bp duplex at 3' end of strand 1, 5' ssRNA overhang. (In general: Mobility shift assays separate free from complexed probe on a gel.)

Data set [2] deals with T1, TDP-43-MBP (full-length wild-type …). Kind of data set: EMSA; Kd,app only in figure; much lower affinity than intron probe; EMSA: 1 nM RNA, 50 mM Tris-HCl pH 7.5, 100 mM KCl, 2 mM MgCl2, 100 mM beta-mercaptoethanol, 0.1 mg/ml BSA, 30 min, room temperature; TDP-43 0-4 (printed mM in Methods, 0-8 uM in legend); 6% native PAGE, Cy5 imaging. To be noted: protein: recombinant, tags: MBP, Ni-NTA purified, label: 5' Cy3 on strand 1, 3' Cy5 on 18-mer.

Data set [3] has the same target. Kind of data set: EMSA; Kd,app only in figure; affinity similar to CE Ref; EMSA: 1 nM RNA, 50 mM Tris-HCl pH 7.5, 100 mM KCl, 2 mM MgCl2, 100 mM beta-mercaptoethanol, 0.1 mg/ml BSA, 30 min, room temperature; TDP-43 0-4 (printed mM in Methods, 0-8 uM in legend); 6% native PAGE, Cy5 imaging. The conditions noted are these: protein: recombinant; tags: MBP; Ni-NTA purified; label: 5' Cy3 on strand 1; 3' Cy5 on 18-mer; 18 bp duplex at 3' end of strand 1, 5' ssRNA overhang 26 nt.

T1 sequence (Q13148 whole entry): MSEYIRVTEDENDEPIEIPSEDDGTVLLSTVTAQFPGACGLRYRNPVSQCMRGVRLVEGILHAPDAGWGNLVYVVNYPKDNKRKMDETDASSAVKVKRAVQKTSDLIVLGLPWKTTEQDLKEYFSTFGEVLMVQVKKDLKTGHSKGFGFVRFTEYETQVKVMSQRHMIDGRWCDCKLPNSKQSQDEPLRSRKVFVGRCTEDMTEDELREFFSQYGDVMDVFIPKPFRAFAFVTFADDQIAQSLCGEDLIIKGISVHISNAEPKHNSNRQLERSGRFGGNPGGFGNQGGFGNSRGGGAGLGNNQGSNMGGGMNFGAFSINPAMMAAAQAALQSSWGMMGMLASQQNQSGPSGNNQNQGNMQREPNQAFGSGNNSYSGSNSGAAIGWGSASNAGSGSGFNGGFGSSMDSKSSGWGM

B1: Intron Ref (U), rs12608932 (mixed)
RNA 1: AAUGGAUGGUUGGAUAAAUUGAUGGGUGGAUGGAUGCCUCGCUGCCGUCGCCA
RNA 2: UGGCGACGGCAGCGAGGC
modifications: 5' biotin on 18-mer strand
As for B1, the binding result in data set [1] is on record as “binds”.

B2: CE Ref (G), rs12973192 (mixed)
RNA 1: AAGGAUGGAUGGAGAGAUGGGUGAGUGCCUCGCUGCCGUCGCCA
RNA 2: UGGCGACGGCAGCGAGGC
modifications: 5' biotin on 18-mer strand
B2: the binding result in data set [2] (18 bp duplex at 3' end of strand 1, 5' ssRNA overhang 26 nt) was “binds”.

B3: CE Risk (C), rs12973192 (mixed)
RNA 1: AAGCAUGGAUGGAGAGAUGGGUGAGUGCCUCGCUGCCGUCGCCA
RNA 2: UGGCGACGGCAGCGAGGC
modifications: 5' biotin on 18-mer strand
Take B3: the binding result in data set [3] is given as “binds”.

B4: Repeat Ref ((GATG)4), rs56041637 (mixed)
RNA 1: UGGAUGGAUGGAUGGAUGGAGCCUCGCUGCCGUCGCCA
RNA 2: UGGCGACGGCAGCGAGGC
modifications: 5' biotin on 18-mer strand
For B4, the binding result in data set [2] (18 bp duplex at 3' end of strand 1, 5' ssRNA overhang 20 nt) is “binds”.
